Reference: PMC2886027

Target: T1, DraTopIB (Deinococcus radiodurans, UniProt Q9RWH8 1-346)
T1 sequence: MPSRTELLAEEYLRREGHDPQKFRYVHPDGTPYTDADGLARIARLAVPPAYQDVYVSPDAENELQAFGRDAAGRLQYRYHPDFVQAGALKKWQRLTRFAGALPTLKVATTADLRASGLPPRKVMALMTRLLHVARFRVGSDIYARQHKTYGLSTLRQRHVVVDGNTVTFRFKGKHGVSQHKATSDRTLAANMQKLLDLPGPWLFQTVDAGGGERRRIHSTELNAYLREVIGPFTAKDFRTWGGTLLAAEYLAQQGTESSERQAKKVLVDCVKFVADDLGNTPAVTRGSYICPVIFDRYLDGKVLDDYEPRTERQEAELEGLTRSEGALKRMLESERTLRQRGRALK
Experiment: crystal structure

B1: 12-bp duplex (dsDNA)
DNA 1: GAATAAGGGCGC
DNA 2: GCGCCCTTATTC
binding result: binds
